Experimental data: publication PMC8146883, “A New Thermophilic Ene-Reductase from the Filamentous Anoxygenic Phototrophic Bacterium Chloroflexus aggregans” (Microorganisms, 2021)

Target: CaOYE, ene-reductase (Old Yellow Enzyme homologue) from Chloroflexus aggregans (Chloroflexus aggregans DSM 9485) (UniProt B8G5D6)
Assay: crystal structure; N-terminally His6-tagged CaOYE at 20 mg/mL in 50 mM Tris-HCl pH 8.0; crystals from 100 mM HEPES pH 7.0, 1.1 M sodium malonate, 0.5% Jeffamine ED-2003, 293 K; space group C2221, 4 molecules per asymmetric unit; dimer seen in the crystal packing

CaOYE, ene-reductase (Old Yellow Enzyme homologue) from Chloroflexus aggregans, sequence (B8G5D6 whole entry): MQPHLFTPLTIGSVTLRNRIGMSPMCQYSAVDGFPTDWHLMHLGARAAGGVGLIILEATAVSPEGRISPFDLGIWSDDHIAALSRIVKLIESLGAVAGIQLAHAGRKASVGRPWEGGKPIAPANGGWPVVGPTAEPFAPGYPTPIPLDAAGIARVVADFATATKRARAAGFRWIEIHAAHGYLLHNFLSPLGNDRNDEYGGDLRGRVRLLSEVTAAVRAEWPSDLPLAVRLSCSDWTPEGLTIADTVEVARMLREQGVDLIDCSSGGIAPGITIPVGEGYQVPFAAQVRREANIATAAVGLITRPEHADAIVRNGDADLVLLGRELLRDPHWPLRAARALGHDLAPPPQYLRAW

- stoichiometry N: 2
Substance: CaOYE, ene-reductase (Old Yellow Enzyme homologue) from Chloroflexus aggregans (from UniProt B8G5D6 1-354)
